Key:
[1] = target: Mlh1 (WT, FLAG);Pms1 (WT) (Saccharomyces cerevisiae (expressed in …, UniProt P38920;P14242 1-769;1-873, |)); assay: filter binding; no nucleotide; 2 mM Mg2+; Filter binding: 20 mM Tris-HCl pH 7.5, 20 mM NaCl (25 mM in legends), 0.01 mM EDTA, 2 mM MgCl2, 40 ug/ml BSA, 0.1 mM DTT, 15 nM DNA, +/-1 mM ATP, 30 C, 10 min; settings: protein: recombinant;recombinant; tags: FLAG inserted at position 499;; copies: 1;1; label: 5'-32P on AO3142; blunt
[2] = target: Mlh1 del348-373 (FLAG);Pms1 del438-487 (DLDMMR subunit) (Saccharomyces cerevisiae (expressed in …, UniProt P38920;P14242 1-769;1-873, del348-373|del438-487)); assay: filter binding; no nucleotide; 2 mM Mg2+; similar to WT; Filter binding: 20 mM Tris-HCl pH 7.5, 20 mM NaCl (25 mM in legends), 0.01 mM EDTA, 2 mM MgCl2, 40 ug/ml BSA, 0.1 mM DTT, 15 nM DNA, +/-1 mM ATP, 30 C, 10 min; settings: protein: recombinant;recombinant; tags: FLAG inserted at position equivalent to 499;; copies: 1;1; label: 5'-32P on AO3142; blunt
Chain of Mlh1 del348-373 (FLAG);Pms1 del438-487 (DLDMMR subunit) (Saccharomyces cerevisiae (P38920 other isoform, or with tags, fused parts or gaps del348-373|del438-487, chain 1 of 2): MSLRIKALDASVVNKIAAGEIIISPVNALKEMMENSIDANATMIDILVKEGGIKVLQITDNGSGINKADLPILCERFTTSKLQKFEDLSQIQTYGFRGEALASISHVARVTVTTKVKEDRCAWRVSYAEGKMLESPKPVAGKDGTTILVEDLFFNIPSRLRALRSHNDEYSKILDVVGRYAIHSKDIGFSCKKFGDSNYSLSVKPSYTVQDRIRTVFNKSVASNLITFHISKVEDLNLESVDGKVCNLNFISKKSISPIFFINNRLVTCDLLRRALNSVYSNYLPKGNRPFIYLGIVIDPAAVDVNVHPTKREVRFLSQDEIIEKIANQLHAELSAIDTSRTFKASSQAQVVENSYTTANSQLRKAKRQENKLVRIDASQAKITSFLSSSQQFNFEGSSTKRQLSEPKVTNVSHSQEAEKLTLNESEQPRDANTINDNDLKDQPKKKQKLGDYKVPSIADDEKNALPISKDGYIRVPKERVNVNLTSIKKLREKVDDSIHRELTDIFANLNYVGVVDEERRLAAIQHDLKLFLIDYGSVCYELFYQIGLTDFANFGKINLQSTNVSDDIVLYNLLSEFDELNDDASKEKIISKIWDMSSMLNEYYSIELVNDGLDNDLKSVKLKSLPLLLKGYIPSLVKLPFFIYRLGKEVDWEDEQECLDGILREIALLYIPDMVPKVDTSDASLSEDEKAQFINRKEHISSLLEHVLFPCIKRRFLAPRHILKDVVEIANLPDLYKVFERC
Chain of Mlh1 del348-373 (FLAG);Pms1 del438-487 (DLDMMR subunit) (Saccharomyces cerevisiae (P14242 other isoform, or with tags, fused parts or gaps del348-373|del438-487, chain 2 of 2): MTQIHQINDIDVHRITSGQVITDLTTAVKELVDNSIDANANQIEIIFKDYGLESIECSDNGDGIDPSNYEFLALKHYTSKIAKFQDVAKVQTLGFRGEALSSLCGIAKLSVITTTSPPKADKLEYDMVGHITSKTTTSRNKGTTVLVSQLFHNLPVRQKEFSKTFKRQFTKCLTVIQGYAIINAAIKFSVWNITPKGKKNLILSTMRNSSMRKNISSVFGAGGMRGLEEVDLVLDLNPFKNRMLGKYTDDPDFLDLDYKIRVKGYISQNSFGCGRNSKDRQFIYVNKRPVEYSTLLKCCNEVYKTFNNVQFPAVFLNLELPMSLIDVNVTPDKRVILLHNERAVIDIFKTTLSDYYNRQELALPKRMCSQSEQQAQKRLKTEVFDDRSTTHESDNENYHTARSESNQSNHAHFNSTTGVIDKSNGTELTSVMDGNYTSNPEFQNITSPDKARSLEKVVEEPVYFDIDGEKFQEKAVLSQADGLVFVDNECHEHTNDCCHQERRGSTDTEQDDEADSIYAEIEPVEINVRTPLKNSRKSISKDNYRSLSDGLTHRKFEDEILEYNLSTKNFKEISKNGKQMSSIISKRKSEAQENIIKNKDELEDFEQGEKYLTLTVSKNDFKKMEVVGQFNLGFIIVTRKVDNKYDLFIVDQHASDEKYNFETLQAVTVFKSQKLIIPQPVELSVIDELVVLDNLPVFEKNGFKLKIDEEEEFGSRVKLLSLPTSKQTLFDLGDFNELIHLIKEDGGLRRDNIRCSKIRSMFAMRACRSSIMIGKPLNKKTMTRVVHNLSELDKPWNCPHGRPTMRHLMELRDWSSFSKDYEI

[3] = target: Mlh1 del348-373 (FLAG);Pms1 del584-634 (DLDnull subunit) (Saccharomyces cerevisiae (expressed in …, UniProt P38920;P14242 1-769;1-873, del348-373|del584-634)); assay: as above; settings: protein: recombinant;recombinant; tags: FLAG inserted at position equivalent to 499;; copies: 1;1; label: 5'-32P on AO3142; blunt
Chain of Mlh1 del348-373 (FLAG);Pms1 del584-634 (DLDnull subunit) (Saccharomyces cerevisiae (P38920 other isoform, or with tags, fused parts or gaps del348-373|del584-634, chain 1 of 2): as the sequence (P38920 other isoform, or with tags, fused parts or gaps del348-373|del438-487, chain 1 of 2) above
Chain of Mlh1 del348-373 (FLAG);Pms1 del584-634 (DLDnull subunit) (Saccharomyces cerevisiae (P14242 other isoform, or with tags, fused parts or gaps del348-373|del584-634, chain 2 of 2): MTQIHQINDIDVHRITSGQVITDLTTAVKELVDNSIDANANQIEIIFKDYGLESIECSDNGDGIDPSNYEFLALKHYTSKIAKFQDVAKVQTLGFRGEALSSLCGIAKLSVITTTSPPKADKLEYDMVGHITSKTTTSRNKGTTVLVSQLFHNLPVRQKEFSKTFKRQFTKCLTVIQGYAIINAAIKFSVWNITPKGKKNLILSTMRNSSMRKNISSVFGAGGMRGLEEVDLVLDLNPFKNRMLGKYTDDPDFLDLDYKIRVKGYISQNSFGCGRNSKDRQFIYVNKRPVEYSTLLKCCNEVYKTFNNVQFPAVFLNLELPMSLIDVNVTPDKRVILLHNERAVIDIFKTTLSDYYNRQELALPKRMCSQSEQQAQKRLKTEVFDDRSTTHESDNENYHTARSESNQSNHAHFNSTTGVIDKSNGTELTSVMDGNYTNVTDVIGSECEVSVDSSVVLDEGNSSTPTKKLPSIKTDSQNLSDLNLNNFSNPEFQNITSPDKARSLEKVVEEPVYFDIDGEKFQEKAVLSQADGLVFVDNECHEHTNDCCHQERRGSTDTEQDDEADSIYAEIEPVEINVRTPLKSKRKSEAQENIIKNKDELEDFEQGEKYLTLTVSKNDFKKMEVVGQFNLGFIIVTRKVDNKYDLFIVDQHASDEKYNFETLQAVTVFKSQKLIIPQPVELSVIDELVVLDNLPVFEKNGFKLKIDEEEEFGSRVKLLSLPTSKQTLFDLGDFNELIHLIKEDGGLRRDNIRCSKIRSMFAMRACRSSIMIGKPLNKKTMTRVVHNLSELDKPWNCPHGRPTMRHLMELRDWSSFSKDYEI

Measured: binding result

Chain of Mlh1 (WT, FLAG);Pms1 (WT) (Saccharomyces cerevisiae (P38920 whole entry, chain 1 of 2): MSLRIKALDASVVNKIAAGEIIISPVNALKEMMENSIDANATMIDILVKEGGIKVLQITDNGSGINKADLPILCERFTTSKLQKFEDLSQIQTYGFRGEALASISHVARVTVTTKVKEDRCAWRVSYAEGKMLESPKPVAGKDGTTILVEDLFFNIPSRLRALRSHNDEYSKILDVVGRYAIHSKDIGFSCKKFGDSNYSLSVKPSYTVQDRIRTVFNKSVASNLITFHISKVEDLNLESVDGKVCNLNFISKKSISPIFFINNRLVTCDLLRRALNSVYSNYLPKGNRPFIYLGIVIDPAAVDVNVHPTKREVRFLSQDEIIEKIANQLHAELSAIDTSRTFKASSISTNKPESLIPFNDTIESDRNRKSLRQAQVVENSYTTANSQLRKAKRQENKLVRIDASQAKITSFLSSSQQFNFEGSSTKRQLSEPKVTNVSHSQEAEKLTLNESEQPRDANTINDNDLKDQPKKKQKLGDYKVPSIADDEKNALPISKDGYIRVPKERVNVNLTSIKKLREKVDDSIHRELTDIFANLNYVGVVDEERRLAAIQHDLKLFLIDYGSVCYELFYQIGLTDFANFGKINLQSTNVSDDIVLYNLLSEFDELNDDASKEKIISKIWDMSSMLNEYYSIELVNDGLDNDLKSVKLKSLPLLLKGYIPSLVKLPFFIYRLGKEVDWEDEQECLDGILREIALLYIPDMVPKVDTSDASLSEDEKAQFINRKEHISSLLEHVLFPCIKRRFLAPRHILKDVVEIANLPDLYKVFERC
Chain of Mlh1 (WT, FLAG);Pms1 (WT) (Saccharomyces cerevisiae (P14242 whole entry, chain 2 of 2): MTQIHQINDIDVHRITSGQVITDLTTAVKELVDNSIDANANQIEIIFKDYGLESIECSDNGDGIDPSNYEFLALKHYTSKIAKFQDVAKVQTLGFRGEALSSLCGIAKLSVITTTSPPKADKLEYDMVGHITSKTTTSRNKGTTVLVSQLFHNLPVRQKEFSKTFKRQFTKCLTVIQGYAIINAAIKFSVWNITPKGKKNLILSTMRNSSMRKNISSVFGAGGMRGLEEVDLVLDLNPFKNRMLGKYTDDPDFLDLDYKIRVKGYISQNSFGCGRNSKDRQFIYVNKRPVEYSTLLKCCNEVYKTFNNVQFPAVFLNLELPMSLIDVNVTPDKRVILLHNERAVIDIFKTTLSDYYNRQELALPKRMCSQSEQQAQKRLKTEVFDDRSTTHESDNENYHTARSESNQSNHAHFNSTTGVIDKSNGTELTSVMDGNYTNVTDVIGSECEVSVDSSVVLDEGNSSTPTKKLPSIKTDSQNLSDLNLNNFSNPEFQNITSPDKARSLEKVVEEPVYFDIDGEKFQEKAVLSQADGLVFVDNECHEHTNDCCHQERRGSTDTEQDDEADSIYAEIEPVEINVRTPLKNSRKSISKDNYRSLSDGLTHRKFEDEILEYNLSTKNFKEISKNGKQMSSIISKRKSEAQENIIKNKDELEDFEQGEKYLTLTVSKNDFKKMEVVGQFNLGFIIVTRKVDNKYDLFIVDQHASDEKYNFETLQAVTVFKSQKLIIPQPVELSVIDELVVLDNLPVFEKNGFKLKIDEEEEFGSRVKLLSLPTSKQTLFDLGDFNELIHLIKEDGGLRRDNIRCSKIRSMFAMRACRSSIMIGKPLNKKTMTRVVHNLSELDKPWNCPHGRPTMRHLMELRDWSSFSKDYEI

B1: 49-bp homoduplex AO3142/AO3144 (dsDNA)
DNA 1: GGGTCAACGTGGGCAAAGATGTCCTAGCAAGTCAGAATTCGGTAGCGTG
DNA 2: CACGCTACCGAATTCTGACTTGCTAGGACATCTTTGCCCACGTTGACCC
binds: all assays above

Source: PMC6393296, “Intrinsically disordered regions regulate both catalytic and non-catalytic activities of the MutLα mismatch repair complex”
